{
  "source": "paper doi:10.1101/2023.10.26.564249",
  "molecular_target": "His6-RpoS (sigma S) (Salmonella enterica serovar Typhimurium 14028s) (UniProt D0ZVL4)",
  "sequence (D0ZVL4 whole entry)": "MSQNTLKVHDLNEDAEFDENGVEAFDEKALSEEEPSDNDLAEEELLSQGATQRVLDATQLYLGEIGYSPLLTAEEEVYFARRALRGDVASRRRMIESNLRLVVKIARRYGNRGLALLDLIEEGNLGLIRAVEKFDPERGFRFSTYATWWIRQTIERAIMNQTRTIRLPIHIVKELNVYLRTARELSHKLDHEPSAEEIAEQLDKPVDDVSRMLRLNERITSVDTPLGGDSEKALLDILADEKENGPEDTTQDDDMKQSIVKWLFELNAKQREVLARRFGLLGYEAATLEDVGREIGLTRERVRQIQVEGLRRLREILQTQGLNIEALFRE",
  "experiment": "EMSA",
  "settings": "LightShift chemiluminescent EMSA kit, 20 uL: 1 ng biotin-DNA, 2 uL binding buffer, 1 ug poly(dI.dC), 1 uL 50% glycerol, 1 uL 1 M KCl (about 50 mM added)",
  "data": [
    {"sequence": "ACTCGTATGTTTATCATGCAACCTATAAATAAATGTTATATTCAATAACTAATATTACATCTCAAATTCTCTCAAGTATGTCATAACGCTGCAGCAAATAAAAGTCAGTCAGC (double strand) [waaZ promoter]", "values": [
      {"measurement": "binding", "value": "binds"}
    ]},
    {"sequence": "ACTTCCCCGAGCTTAAAAATGACCCAAACGGGTGTACCGATCTTAGTCTGCTGGCTGGCGCTGTAGCAAAGTTTAATGTCATCGGTAACCGGCTGGATTTAGCGATCCCTCAAATCGCG (double strand) [sthC promoter]", "values": [
      {"measurement": "binding", "value": "binds"}
    ]}
  ]
}
